{
  "source": "paper doi:10.1101/2023.02.07.527516",
  "assay_in_all_cases": "native gel or EMSA",
  "key": {"[1]": {"target": "GluA2(R), edited form of the GluA2 AMPA receptor subunit (rat, flip) (rat)"}, "[2]": {"target": "GluA1 lacking the extracellular domains (GluA1-ΔECD) (rat)"}, "[3]": {"target": "GluA1-TARP γ-2 tandem (rat)"}, "[4]": {"target": "GluA1 AMPA receptor subunit, wild type (rat, flip) (rat)"}, "GluA1(G816A) (rat)": {"target": "GluA1(G816A) (rat)"}, "[5]": {"target": "GluA1(G816A)-TARP γ-2 tandem (rat)"}},
  "data": [
    {"substance": "GluA2(R), edited form of the GluA2 AMPA receptor subunit (rat, flip)", "values": [
      {"measurement": "stoichiometry N", "setting": "[1]", "result": 4}
    ]},
    {"substance": "GluA1 lacking the extracellular domains (GluA1-ΔECD) (domain or fragment)", "values": [
      {"measurement": "stoichiometry N", "setting": "[2]", "result": 4}
    ]},
    {"substance": "GluA1-TARP γ-2 tandem", "values": [
      {"measurement": "stoichiometry N", "setting": "[3]", "result": 4}
    ]},
    {"substance": "GluA1 AMPA receptor subunit, wild type (rat, flip)", "values": [
      {"measurement": "stoichiometry N", "setting": "[4]", "result": 4}
    ]},
    {"substance": "GluA1(G816A) (receptor)", "values": [
      {"measurement": "tetramer formation", "setting": "GluA1(G816A) (rat)", "result": 50, "unit": "%"}
    ]},
    {"substance": "GluA1(G816A)-TARP γ-2 tandem", "values": [
      {"measurement": "stoichiometry N", "setting": "[5]", "result": 4}
    ]}
  ]
}
